Key:
[1] = Aggregation tendency by turbidity of the solution (absorbance at 400 nm); assay type: physicochemical; details: 0 to 0.1 A non-aggregated, above 0.3 aggregated
Description: The tendency of modified insulin to aggregate was assessed by measuring the turbidity of the solution. This method is based on the work of Leach and Scheraga (S. J. Leach and H. A. Scheraga (1964) J. Amer. Chem. Soc. 82, 4790-4792) who stated that absorbancy observed in insulin solutions between 350 and 600 nm is due to light scattering of aggregated particles. […] After deaeration under vacuo for 60 min. 1 ml of this solution was diluted with 1 ml of PBS, and the turbidity was measured on a Hewlett Packard spectrophotometer type HP 8590, utilizing as a blank a non-aggregated sample diluted by 1 volume of 8M guanidine hydrochloride. Aggregation was measured by the difference in absorbance determined at 400 nm for the two samples. Non-aggregated samples gave absorbance values of 0 to 0.1 Absorbance Unit(A), Values above 0.3 were considered to be aggregated.

[2] = Hypoglycemic potency (United States Pharmacopeia method); assay type: in vivo; details: USP Vol. 18 hypoglycemic potency assay; relative to unmodified insulin
Description: Hypoglycemic potency of the modified insulin was measured as described in "The United States Pharmacopeia", Mark Publishing Co., Vol. 18, pp. 883-884 (1964). Bioactivity was 62% as compared to unmodified insulin.

Substance	Turbidity (difference in absorbance at 400 nm) ([1]; dissolved in PBS, passed 50 times through syringe with 26G needle, blank in guanidine hydrochloride)	Bioactivity (hypoglycemic potency) as compared to unmodified insulin [2]	Turbidity (absorbance at 400 nm) ([1]; dissolved in distilled water, treated by the same procedure)
Example 1: porcine sodium insulin sulphated with sulfuric acid and N,N' dicyclohexyl carbodiimide in dimethylformamide	0.08 A	62%	–
Example 4: porcine sodium insulin phosphorylated with concentrated phosphoric acid and DCC in DMF	–	85%	–
unmodified porcine sodium insulin: unmodified porcine sodium insulin, starting material and comparator [reference compound]	–	–	0.51 A
